The source of these data is patent US20160185836A1 (published 2016).

For assay [1], the target named is T1, activin A (UniProt P08476 311-426).
T1 sequence (looked up): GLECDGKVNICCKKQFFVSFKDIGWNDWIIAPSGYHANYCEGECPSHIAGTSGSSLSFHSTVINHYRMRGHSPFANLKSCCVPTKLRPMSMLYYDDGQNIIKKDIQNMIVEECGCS
Put plainly: cell-based or functional assay.

Assay [2] has as its target T2, GDF11 (UniProt O95390 299-407).
T2 sequence (looked up): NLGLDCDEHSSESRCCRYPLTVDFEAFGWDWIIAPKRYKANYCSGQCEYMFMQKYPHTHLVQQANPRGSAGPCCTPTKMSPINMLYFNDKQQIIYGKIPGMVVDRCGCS
The assay can be described thus: cell-based or functional assay.

For assay [3], the target named is T1, activin A. Put plainly: binding assay, method not stated.
Assay [4] concerns the target T2, GDF11. Put plainly: binding assay, method not stated.

B1: FST(288)-IgG2 (Fc fusion)
chain: GNCWLRQAKNGRCQVLYKTELSKEECCSTGRLSTSWTEEDVNDNTLFKWMIFNGGAPNCIPCKETCENVDCGPGKKCRMNKKNKPRCVCAPDCSNITWKGPVCGLDGKTYRNECALLKARCKEQPELEVQYQGRCKKTCRDVFCPGSSTCVVDQTNNAYCVTCNRICPEPASSEQYLCGNDGVTYSSACHLRKATCLLGRSIGLAYEGKCIKAKSCEDIQCTGGKKCLWDFKVGRGRCSLCDELCPDSKSDEPVCASDNATYASECAMKEAACSSGVLLEVKHSGSCNTGGGVECPPCPAPPVAGPSVFLFPPKPKDTLMISRTPEVTCVVVDVSHEDPEVQFNWYVDGVEVHNAKTKPREEQFNSTFRVVSVLTVVHQDWLNGKEYKCKVSNKGLPAPIEKTISKTKGQPREPQVYTLPPSREEMTKNQVSLTCLVKGFYPSDIAVEWESNGQPENNYKTTPPMLDSDGSFFLYSKLTVDKSRWQQGNVFSCSVMHEALHNHYTQKSLSLSPGK
notes: Expressed with the follistatin leader in HEK-293 or CHO cells; also called mature FST(288)-IgG2
As for B1, the “IC50 (ng/ml), A-204 Reporter Gene Assay” value in assay [1] was 30 ng/mL; in assay [2], 41 ng/mL. Moreover, the Kd in assay [3] and in assay [4] was less than 0.01 nM throughout.

B2: FST(291)-IgG2 (Fc fusion)
chain: GNCWLRQAKNGRCQVLYKTELSKEECCSTGRLSTSWTEEDVNDNTLFKWMIFNGGAPNCIPCKETCENVDCGPGKKCRMNKKNKPRCVCAPDCSNITWKGPVCGLDGKTYRNECALLKARCKEQPELEVQYQGRCKKTCRDVFCPGSSTCVVDQTNNAYCVTCNRICPEPASSEQYLCGNDGVTYSSACHLRKATCLLGRSIGLAYEGKCIKAKSCEDIQCTGGKKCLWDFKVGRGRCSLCDELCPDSKSDEPVCASDNATYASECAMKEAACSSGVLLEVKHSGSCNSISTGGGVECPPCPAPPVAGPSVFLFPPKPKDTLMISRTPEVTCVVVDVSHEDPEVQFNWYVDGVEVHNAKTKPREEQFNSTFRVVSVLTVVHQDWLNGKEYKCKVSNKGLPAPIEKTISKTKGQPREPQVYTLPPSREEMTKNQVSLTCLVKGFYPSDIAVEWESNGQPENNYKTTPPMLDSDGSFFLYSKLTVDKSRWQQGNVFSCSVMHEALHNHYTQKSLSLSPGK
notes: Expressed with the follistatin leader in HEK-293 or CHO cells; also called mature FST(291)-IgG2
As for B2, the results for the “IC50 (ng/ml), A-204 Reporter Gene Assay” value in assay [1] and in assay [2] were 20 ng/mL and 26 ng/mL, respectively. Besides, the Kd in assay [3] and in assay [4] was less than 0.01 nM throughout.

B3: FST(303)-IgG2 (Fc fusion)
chain: GNCWLRQAKNGRCQVLYKTELSKEECCSTGRLSTSWTEEDVNDNTLFKWMIFNGGAPNCIPCKETCENVDCGPGKKCRMNKKNKPRCVCAPDCSNITWKGPVCGLDGKTYRNECALLKARCKEQPELEVQYQGRCKKTCRDVFCPGSSTCVVDQTNNAYCVTCNRICPEPASSEQYLCGNDGVTYSSACHLRKATCLLGRSIGLAYEGKCIKAKSCEDIQCTGGKKCLWDFKVGRGRCSLCDELCPDSKSDEPVCASDNATYASECAMKEAACSSGVLLEVKHSGSCNSISEDTEEEEEDEDQTGGGVECPPCPAPPVAGPSVFLFPPKPKDTLMISRTPEVTCVVVDVSHEDPEVQFNWYVDGVEVHNAKTKPREEQFNSTFRVVSVLTVVHQDWLNGKEYKCKVSNKGLPAPIEKTISKTKGQPREPQVYTLPPSREEMTKNQVSLTCLVKGFYPSDIAVEWESNGQPENNYKTTPPMLDSDGSFFLYSKLTVDKSRWQQGNVFSCSVMHEALHNHYTQKSLSLSPGK
For the molecule B3, the IC50 (ng/ml), A-204 Reporter Gene Assay in assay [1] stood at 2 ng/mL; in assay [2], 18 ng/mL.

B4: FST(315)-IgG2 (Fc fusion)
chain: GNCWLRQAKNGRCQVLYKTELSKEECCSTGRLSTSWTEEDVNDNTLFKWMIFNGGAPNCIPCKETCENVDCGPGKKCRMNKKNKPRCVCAPDCSNITWKGPVCGLDGKTYRNECALLKARCKEQPELEVQYQGRCKKTCRDVFCPGSSTCVVDQTNNAYCVTCNRICPEPASSEQYLCGNDGVTYSSACHLRKATCLLGRSIGLAYEGKCIKAKSCEDIQCTGGKKCLWDFKVGRGRCSLCDELCPDSKSDEPVCASDNATYASECAMKEAACSSGVLLEVKHSGSCNSISEDTEEEEEDEDQDYSFPISSILEWTGGGVECPPCPAPPVAGPSVFLFPPKPKDTLMISRTPEVTCVVVDVSHEDPEVQFNWYVDGVEVHNAKTKPREEQFNSTFRVVSVLTVVHQDWLNGKEYKCKVSNKGLPAPIEKTISKTKGQPREPQVYTLPPSREEMTKNQVSLTCLVKGFYPSDIAVEWESNGQPENNYKTTPPMLDSDGSFFLYSKLTVDKSRWQQGNVFSCSVMHEALHNHYTQKSLSLSPGK
notes: Expressed with the follistatin leader in HEK-293 or CHO cells; also called mature FST(315)-IgG2
For the molecule B4, the “IC50 (ng/ml), A-204 Reporter Gene Assay” value in assay [1] was 10 ng/mL; in assay [2] it was 15 ng/mL. Besides, the Kd in assay [3] and in assay [4] was less than 0.01 nM in each case.

B5: FST(278)-IgG2 (Fc fusion)
chain: GNCWLRQAKNGRCQVLYKTELSKEECCSTGRLSTSWTEEDVNDNTLFKWMIFNGGAPNCIPCKETCENVDCGPGKKCRMNKKNKPRCVCAPDCSNITWKGPVCGLDGKTYRNECALLKARCKEQPELEVQYQGRCKKTCRDVFCPGSSTCVVDQTNNAYCVTCNRICPEPASSEQYLCGNDGVTYSSACHLRKATCLLGRSIGLAYEGKCIKAKSCEDIQCTGGKKCLWDFKVGRGRCSLCDELCPDSKSDEPVCASDNATYASECAMKEAACSSGVLTGGGVECPPCPAPPVAGPSVFLFPPKPKDTLMISRTPEVTCVVVDVSHEDPEVQFNWYVDGVEVHNAKTKPREEQFNSTFRVVSVLTVVHQDWLNGKEYKCKVSNKGLPAPIEKTISKTKGQPREPQVYTLPPSREEMTKNQVSLTCLVKGFYPSDIAVEWESNGQPENNYKTTPPMLDSDGSFFLYSKLTVDKSRWQQGNVFSCSVMHEALHNHYTQKSLSLSPGK
On to B5, for which the IC50 (ng/ml), A-204 Reporter Gene Assay stood at 521 ng/mL in assay [1] and 91 ng/mL in assay [2].

B6: FST(284)-IgG2 (Fc fusion)
chain: GNCWLRQAKNGRCQVLYKTELSKEECCSTGRLSTSWTEEDVNDNTLFKWMIFNGGAPNCIPCKETCENVDCGPGKKCRMNKKNKPRCVCAPDCSNITWKGPVCGLDGKTYRNECALLKARCKEQPELEVQYQGRCKKTCRDVFCPGSSTCVVDQTNNAYCVTCNRICPEPASSEQYLCGNDGVTYSSACHLRKATCLLGRSIGLAYEGKCIKAKSCEDIQCTGGKKCLWDFKVGRGRCSLCDELCPDSKSDEPVCASDNATYASECAMKEAACSSGVLLEVKHSTGGGVECPPCPAPPVAGPSVFLFPPKPKDTLMISRTPEVTCVVVDVSHEDPEVQFNWYVDGVEVHNAKTKPREEQFNSTFRVVSVLTVVHQDWLNGKEYKCKVSNKGLPAPIEKTISKTKGQPREPQVYTLPPSREEMTKNQVSLTCLVKGFYPSDIAVEWESNGQPENNYKTTPPMLDSDGSFFLYSKLTVDKSRWQQGNVFSCSVMHEALHNHYTQKSLSLSPGK
Take B6: the IC50 (ng/ml), A-204 Reporter Gene Assay in assay [1] was 369 ng/mL; in assay [2], 123 ng/mL.

For orientation: Kd means the equilibrium constant for the complex coming apart. A low value points to tighter binding.
